Experimental data taken from article PMC10914628 (Nature Chemistry, 2024).

Biological target: the molecule itself
Experiment: SEC; apo state; Superdex 200 in crosslinking buffer (20 mM HEPES pH 7.2, 250 mM KCl, 5 mM EDTA), before and after cross-linking

B1: p97-ND1L-ΔCys-F360C-A413C (domain or fragment)
chain: not shown
modifications: C360 and C413 joined between subunits by bismaleimidoethane (BMOE) in the cross-linked sample
notes: human p97 (VCP), UniProt P55072, residues 1-480; ΔCys: C69V-C77V-C105A-C174A-C184W-C209V-C415A, plus F360C and A413C; also called cysteine-free p97 variant with F360C and A413C; source: E. coli BL21(DE3), purified (Ni-NTA, TEV cleavage, SEC on Superdex 200; apyrase digestion); reduced with DTT and gel-filtered before cross-linking; not shown: His6, N-terminal, cleaved
- stoichiometry N: 6
